Test results: patent publication US20230250154A1 (CYTONICS, published 2023)

B1: Variant A2M, bait region SEQ ID NO 18 (other)
chain: SVSGKPQYMVLVPSLLHTETTEKGCVLLSYLNETVTVSASLESVRGNRSLFTDLEAENDVLHCVAFAVPKSSSNEEVMFLTVQVKGPTQEFKKRTTVMVKNEDSLVFVQTDKSIYKPGQTVKFRVVSMDENFHPLNELIPLVYIQDPKGNRIAQWQSFQLEGGLKQFSFPLSSEPFQGSYKVVVQKKSGGRTEHPFTVEEFVLPKFEVQVTVPKIITILEEEMNVSVCGLYTYGKPVPGHVTVSICRKYSDASDCHGEDSQAFCEKFSGQLNSHGCFYQQVKTKVFQLKRKEYEMKLHTEAQIQEEGTVVELTGRQSSEITRTITKLSFVKVDSHFRQGIPFFGQVRLVDGKGVPIPNKVIFIRGNEANYYSNATTDEHGLVQFSINTTNVMGTSLTVRVNYKDRSPCYGYQWVSEEHEEAHHTAYLVFSPSKSFVHLEPMSHELPCGHTQTVQAHYILNGGTLLGLKKLSFYYLIMAKGGIVRTGTHGLLVKQEDMKGHFSISIPVKSDIAPVARLLIYAVLPTGDVIGDSAKYDVENCLANKVDLSFSPSQSLPASHAHLRVTAAPQSVCALRAVDQSVLLMKPDAELSASSVYNLLPEKDLTGFPGPLNDQDDEDCINRHNVYINGITYTPVSSTNEKDMYSFLEDMGLKAFTNSKIRKPKMCPQLEHGPIPENFYGLEGEGEGEGEAIPMSIPRYLTAEFRGVTVEEPHTKLRKYFPETWIWDLVVVNSAGVAEVGVTVPDTITEWKAGAFCLSEDAGLGISSTASLRAFQPFFVELTMPYSVIRGEAFTLKATVLNYLPKCIRVSVQLEASPAFLAVPVEKEQAPHCICANGRQTVSWAVTPKSLGNVNFTVSAEALESQELCGTEVPSVPEHGRKDTVIKPLLVEPEGLEKETTFNSLLCPSGGEVSEELSLKLPPNVVEESARASVSVLGDILGSAMQNTQNLLQMPYGCGEQNMVLFAPNIYVLDYLNETQQLTPEIKSKAIGYLNTGYQRQLNYKHYDGSYSTFGERYGRNQGNTWLTAFVLKTFAQARAYIFIDEAHITQALIWLSQRQKDNGCFRSSGSLLNNAIKGGVEDEVTLSAYITIALLEIPLTVTHPVVRNALFCLESAWKTAQEGDHGSHVYTKALLAYAFALAGNQDKRKEVLKSLNEEAVKKDNSVHWERPQKPKAPVGHFYEPQAPSAEVEMTSYVLLAYLTAQPAPTSEDLTSATNIVKWITKQQNAQGGFSSTQDTVVALHALSKYGAATFTRTGKAAQVTIQSSGTFSSKFQVDNNNRLLLQQVSLPELPGEYSMKVTGEGCVYLQTSLKYNILPEKEEFPFALGVQTLPQTCDEPKAHTSFQISLSVSYTGSRSASNMAIVDVKMVSGFIPLKPTVKMLERSNHVSRTEVSSNHVLIYLDKVSNQTLSLFFTVLQDVPVRDLKPAIVKVYDYYETDEFAIAEYNAPCSKDLGNADYKDDDDKGASHHHHHH
B2: Variant A2M, bait region SEQ ID NO 16 (other)
chain: SVSGKPQYMVLVPSLLHTETTEKGCVLLSYLNETVTVSASLESVRGNRSLFTDLEAENDVLHCVAFAVPKSSSNEEVMFLTVQVKGPTQEFKKRTTVMVKNEDSLVFVQTDKSIYKPGQTVKFRVVSMDENFHPLNELIPLVYIQDPKGNRIAQWQSFQLEGGLKQFSFPLSSEPFQGSYKVVVQKKSGGRTEHPFTVEEFVLPKFEVQVTVPKIITILEEEMNVSVCGLYTYGKPVPGHVTVSICRKYSDASDCHGEDSQAFCEKFSGQLNSHGCFYQQVKTKVFQLKRKEYEMKLHTEAQIQEEGTVVELTGRQSSEITRTITKLSFVKVDSHFRQGIPFFGQVRLVDGKGVPIPNKVIFIRGNEANYYSNATTDEHGLVQFSINTTNVMGTSLTVRVNYKDRSPCYGYQWVSEEHEEAHHTAYLVFSPSKSFVHLEPMSHELPCGHTQTVQAHYILNGGTLLGLKKLSFYYLIMAKGGIVRTGTHGLLVKQEDMKGHFSISIPVKSDIAPVARLLIYAVLPTGDVIGDSAKYDVENCLANKVDLSFSPSQSLPASHAHLRVTAAPQSVCALRAVDQSVLLMKPDAELSASSVYNLLPEKDLTGFPGPLNDQDDEDCINRHNVYINGITYTPVSSTNEKDMYSFLEDMGLKAFTNSKIRKPKMCPQLEHGPEFRGVTRYLTAIPENFYGVSELEGRGSSEDLVVQIVEEPHTKLRKYFPETWIWDLVVVNSAGVAEVGVTVPDTITEWKAGAFCLSEDAGLGISSTASLRAFQPFFVELTMPYSVIRGEAFTLKATVLNYLPKCIRVSVQLEASPAFLAVPVEKEQAPHCICANGRQTVSWAVTPKSLGNVNFTVSAEALESQELCGTEVPSVPEHGRKDTVIKPLLVEPEGLEKETTFNSLLCPSGGEVSEELSLKLPPNVVEESARASVSVLGDILGSAMQNTQNLLQMPYGCGEQNMVLFAPNIYVLDYLNETQQLTPEIKSKAIGYLNTGYQRQLNYKHYDGSYSTFGERYGRNQGNTWLTAFVLKTFAQARAYIFIDEAHITQALIWLSQRQKDNGCFRSSGSLLNNAIKGGVEDEVTLSAYITIALLEIPLTVTHPVVRNALFCLESAWKTAQEGDHGSHVYTKALLAYAFALAGNQDKRKEVLKSLNEEAVKKDNSVHWERPQKPKAPVGHFYEPQAPSAEVEMTSYVLLAYLTAQPAPTSEDLTSATNIVKWITKQQNAQGGFSSTQDTVVALHALSKYGAATFTRTGKAAQVTIQSSGTFSSKFQVDNNNRLLLQQVSLPELPGEYSMKVTGEGCVYLQTSLKYNILPEKEEFPFALGVQTLPQTCDEPKAHTSFQISLSVSYTGSRSASNMAIVDVKMVSGFIPLKPTVKMLERSNHVSRTEVSSNHVLIYLDKVSNQTLSLFFTVLQDVPVRDLKPAIVKVYDYYETDEFAIAEYNAPCSKDLGNADYKDDDDKGASHHHHHH

Tests used:
Test in all cases: cell-based or functional assay
[1] = molecular target: MMP9 (human, UniProt P14780 107-707, limits assumed)
[2] = molecular target: MMP8 (human, UniProt P22894 101-467, limits assumed)
[3] = molecular target: T1, MMP2 (human, UniProt P08253 110-660, limits assumed)
T1 sequence (looked up): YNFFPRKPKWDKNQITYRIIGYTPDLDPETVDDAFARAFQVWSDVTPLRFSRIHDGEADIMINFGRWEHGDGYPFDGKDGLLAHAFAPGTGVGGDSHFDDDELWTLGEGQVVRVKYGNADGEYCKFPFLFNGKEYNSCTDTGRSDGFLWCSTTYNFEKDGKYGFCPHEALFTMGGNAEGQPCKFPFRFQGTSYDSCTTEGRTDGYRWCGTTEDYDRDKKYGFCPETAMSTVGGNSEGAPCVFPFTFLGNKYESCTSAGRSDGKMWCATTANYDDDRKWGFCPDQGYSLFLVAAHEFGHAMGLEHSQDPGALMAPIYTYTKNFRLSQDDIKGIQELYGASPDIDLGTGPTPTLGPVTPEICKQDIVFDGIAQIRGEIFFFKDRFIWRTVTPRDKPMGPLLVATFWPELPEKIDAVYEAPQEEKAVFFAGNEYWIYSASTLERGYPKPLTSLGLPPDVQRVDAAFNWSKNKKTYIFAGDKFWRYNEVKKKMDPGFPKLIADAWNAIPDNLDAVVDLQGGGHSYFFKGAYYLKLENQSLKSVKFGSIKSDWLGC

[4] = molecular target: T2, MMP1 (human, UniProt P03956 100-469, limits assumed)
T2 sequence (looked up): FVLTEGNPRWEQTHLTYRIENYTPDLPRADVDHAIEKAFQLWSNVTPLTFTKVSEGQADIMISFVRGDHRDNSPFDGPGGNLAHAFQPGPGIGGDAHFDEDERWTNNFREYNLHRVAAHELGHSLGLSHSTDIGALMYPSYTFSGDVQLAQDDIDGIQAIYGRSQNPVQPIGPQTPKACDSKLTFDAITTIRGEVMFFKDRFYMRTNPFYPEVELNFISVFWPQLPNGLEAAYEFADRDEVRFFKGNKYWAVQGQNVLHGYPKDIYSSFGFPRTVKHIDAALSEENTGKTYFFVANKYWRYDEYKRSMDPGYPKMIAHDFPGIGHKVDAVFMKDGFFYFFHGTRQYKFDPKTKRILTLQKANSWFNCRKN

[5] = molecular target: T3, Cathepsin G (UniProt P08311 21-244)
T3 sequence (looked up): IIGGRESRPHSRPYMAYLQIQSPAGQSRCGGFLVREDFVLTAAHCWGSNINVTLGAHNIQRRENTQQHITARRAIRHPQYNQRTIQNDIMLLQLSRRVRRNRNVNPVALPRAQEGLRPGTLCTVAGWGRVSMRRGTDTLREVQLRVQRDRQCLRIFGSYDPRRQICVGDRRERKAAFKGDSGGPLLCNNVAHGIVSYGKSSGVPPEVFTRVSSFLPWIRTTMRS

[6] = molecular target: T4, ADAMTS5 (human, UniProt Q9UNA0 262-622, limits assumed)
T4 sequence (looked up): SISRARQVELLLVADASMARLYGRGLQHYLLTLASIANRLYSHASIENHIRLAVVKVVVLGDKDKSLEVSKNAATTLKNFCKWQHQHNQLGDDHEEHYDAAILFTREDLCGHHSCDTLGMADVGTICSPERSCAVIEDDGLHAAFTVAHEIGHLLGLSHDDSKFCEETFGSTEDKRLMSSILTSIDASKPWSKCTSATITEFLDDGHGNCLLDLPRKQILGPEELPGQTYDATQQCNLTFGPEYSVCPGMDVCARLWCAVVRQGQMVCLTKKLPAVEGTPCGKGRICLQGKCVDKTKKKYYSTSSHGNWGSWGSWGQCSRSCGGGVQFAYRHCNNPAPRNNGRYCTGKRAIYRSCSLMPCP

[7] = molecular target: MMP3 (human, UniProt P08254 100-477, limits assumed)
[8] = molecular target: Elastase
[9] = molecular target: MMP13 (human, UniProt P45452 104-471, limits assumed)
[10] = molecular target: T5, MMP7 (UniProt P09237 95-267, limits assumed)
T5 sequence (looked up): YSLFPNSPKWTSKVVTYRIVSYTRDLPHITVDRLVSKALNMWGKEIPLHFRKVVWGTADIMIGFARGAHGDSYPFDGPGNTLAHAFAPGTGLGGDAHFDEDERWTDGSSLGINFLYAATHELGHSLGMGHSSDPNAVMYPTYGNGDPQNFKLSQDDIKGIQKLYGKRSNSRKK

Sequence of MMP8 (P22894 101-467 limits assumed): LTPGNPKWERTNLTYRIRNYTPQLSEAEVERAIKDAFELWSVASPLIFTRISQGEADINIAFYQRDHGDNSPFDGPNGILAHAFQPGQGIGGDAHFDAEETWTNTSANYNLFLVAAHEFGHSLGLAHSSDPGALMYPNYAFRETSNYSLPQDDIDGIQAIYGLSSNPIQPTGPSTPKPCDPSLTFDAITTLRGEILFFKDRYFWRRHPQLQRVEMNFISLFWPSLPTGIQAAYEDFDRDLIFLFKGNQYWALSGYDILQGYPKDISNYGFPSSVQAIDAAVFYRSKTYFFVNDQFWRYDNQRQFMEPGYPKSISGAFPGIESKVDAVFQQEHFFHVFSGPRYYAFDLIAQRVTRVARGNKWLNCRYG
Sequence of MMP3 (P08254 100-477 limits assumed): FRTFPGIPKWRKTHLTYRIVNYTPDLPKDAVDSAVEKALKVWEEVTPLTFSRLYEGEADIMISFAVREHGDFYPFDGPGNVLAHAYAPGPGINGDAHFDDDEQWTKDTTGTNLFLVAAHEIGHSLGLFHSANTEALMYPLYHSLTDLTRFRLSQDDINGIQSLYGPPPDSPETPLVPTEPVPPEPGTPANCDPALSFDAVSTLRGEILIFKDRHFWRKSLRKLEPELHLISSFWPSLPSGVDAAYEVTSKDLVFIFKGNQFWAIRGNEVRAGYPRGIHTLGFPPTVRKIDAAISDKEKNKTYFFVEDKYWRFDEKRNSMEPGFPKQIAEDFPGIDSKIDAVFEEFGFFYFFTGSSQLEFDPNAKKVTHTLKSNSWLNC
Sequence of MMP9 (P14780 107-707 limits assumed): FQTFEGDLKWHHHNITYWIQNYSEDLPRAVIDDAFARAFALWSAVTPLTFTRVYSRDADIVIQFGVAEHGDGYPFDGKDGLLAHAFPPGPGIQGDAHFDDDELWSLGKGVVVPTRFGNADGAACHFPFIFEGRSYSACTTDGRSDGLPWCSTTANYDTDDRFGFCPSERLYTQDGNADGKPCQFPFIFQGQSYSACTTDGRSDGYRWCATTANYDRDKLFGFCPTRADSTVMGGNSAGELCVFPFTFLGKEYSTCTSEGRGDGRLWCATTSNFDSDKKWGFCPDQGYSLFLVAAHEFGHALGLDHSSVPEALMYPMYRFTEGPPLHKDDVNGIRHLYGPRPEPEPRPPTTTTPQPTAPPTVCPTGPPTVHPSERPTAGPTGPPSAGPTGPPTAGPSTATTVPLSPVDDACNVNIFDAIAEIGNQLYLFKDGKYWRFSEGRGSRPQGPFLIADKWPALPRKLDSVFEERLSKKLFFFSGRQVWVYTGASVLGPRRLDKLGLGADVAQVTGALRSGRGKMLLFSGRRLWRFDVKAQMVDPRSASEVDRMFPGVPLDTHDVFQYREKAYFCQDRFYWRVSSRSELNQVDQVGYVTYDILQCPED

Binder	Protease Inhibition (% of WT) [1]	Protease Inhibition (% of WT) [2]	Protease Inhibition (% of WT) [3]	Protease Inhibition (% of WT) [4]	Protease Inhibition (% of WT) [5]	Protease Inhibition (% of WT) [6]	Protease Inhibition (% of WT) [7]	Protease Inhibition (% of WT) [8]	Protease Inhibition (% of WT) [9]	Protease Inhibition (% of WT) [10]
B1	53 % of WT	82 % of WT	58 % of WT	91 % of WT	83 % of WT	154 % of WT	38 % of WT	86 % of WT	117 % of WT	102 % of WT
B2	84 % of WT	92 % of WT	92 % of WT	101 % of WT	105 % of WT	305 % of WT	180 % of WT	91 % of WT	104 % of WT	105 % of WT
